# Where no end group is shown, it is not given here.
# Assays:
# [1] = target: T1, intact rat PTH-1 receptor (rWT-HA) (Rattus norvegicus, UniProt P25961); assay: cAMP response in COS-7 cells transiently transfected with intact rat PTH-1 receptor (rWT-HA); format: cell-based; settings: COS-7 cells expressing rWT-HA
# T1 construct: expressed in transfected cells; host or cells: COS-7, transient (DEAE-dextran), pCDNA-1 based plasmid
# T1 sequence (P25961 23-591 E93Y/N94P/K95Y/T99D/G100Y/S101A limits assumed): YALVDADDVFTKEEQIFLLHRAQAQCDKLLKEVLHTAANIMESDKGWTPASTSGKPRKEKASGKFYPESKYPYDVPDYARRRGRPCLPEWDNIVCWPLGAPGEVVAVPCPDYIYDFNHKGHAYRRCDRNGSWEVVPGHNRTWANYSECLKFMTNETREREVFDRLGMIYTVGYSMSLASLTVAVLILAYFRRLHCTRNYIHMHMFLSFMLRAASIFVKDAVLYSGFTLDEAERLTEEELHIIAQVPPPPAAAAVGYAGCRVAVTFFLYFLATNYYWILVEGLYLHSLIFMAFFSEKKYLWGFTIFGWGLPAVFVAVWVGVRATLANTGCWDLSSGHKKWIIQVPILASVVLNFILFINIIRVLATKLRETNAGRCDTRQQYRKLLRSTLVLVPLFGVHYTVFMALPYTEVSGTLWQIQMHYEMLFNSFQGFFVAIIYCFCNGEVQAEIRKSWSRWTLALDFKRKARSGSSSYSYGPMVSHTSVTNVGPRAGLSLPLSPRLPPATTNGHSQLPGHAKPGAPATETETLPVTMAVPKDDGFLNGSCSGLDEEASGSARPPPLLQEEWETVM
# Excerpt: FIG. 4. PTH Responses of Intact and Truncated PTH-1 Receptors in COS-7 Cells. Shown at the top are schematics of the intact (A) and truncated (B) rat PTH-1 receptors used for transient transfection of COS-7 cells, and subsequent cAMP response assays. The conserved extracellular cysteine residues are depicted as open circles and numbered according to sequence position, and the nine amino acids of the epitope tag (HA) in rWT-HA are shaded. The tics at residue 26 and 181 indicate the endpoints of the deletion in rΔNt. Based on the predicted signal peptide cleavage site at Ala-22, residues 23–25 in rΔNt are joined to residue 182. The cAMP responses of COS-7 cells expressing the intact receptor (C) and rΔNt (D) to rPTH(1–34) (J) or rPTH(1–14) (C) are also shown. The graphs show combined data (mean±s.e.m.) from five separate experiments, each performed in duplicate.
# FIG. 5. Alanine-scan of PTH(1–14) with Intact and Truncated PTH Receptors. COS-7 cells transiently transfected with rWT-HA (A) or rCE I-G (B) were treated with 100 mM of native rat PTH(1–14) or 100 mM of a rPTH(1–14) analog containing a single alanine substitution for 1 h at 21° C., and the resulting intracellular cAMP levels were measured by RIA. The amino acid substitutions are indicated on the axis labels. Peptides were tested in duplicate, and a single experiment representative of three others is shown. […]
# [2] = system: PTH-1 receptor (intact or truncated receptors used in this study); assay: Competition and direct binding assays (radioiodinated rPTH(1–34) tracer or radiolabeled PTH(1–14) analog); settings: unlabeled peptide; radioiodinated rPTH(1–34) as tracer ligand; data not shown
# Excerpt: This reduced potency is not surprising, given that the PTH(1–14) peptide lacks important receptor-binding residues located in the PTH(15–34) region in the PTH(15–34) domain (Nussbaum, S. R., et al., J. Biol. Chem. 255:10183–10187 (1980); Gardella, T. J., et al., Endrocrinology 132(5):2024–2030 (1993); Caulfield, M. P., et al., Endocrinology 127:83–87 (1990); and Abou-Samra, A.-B., et al., Endocrinology 125:2215–2217 (1989)).
substance,measurement,setting,value
"PTH(1–14): Amino-terminal peptide fragment based on the rat PTH sequence, residues 1–14, C-terminally amidated (AVSEIQLMHNLGKH-NH2)",potency relative to PTH(1–34) with rWT-HA,[1],four to five orders of magnitude weaker
same,binding in standard competition binding assays,[2],bound too weakly to permit detection

# Reference: patent US7169567B1, “Screening assay utilizing the PTH receptor” (The General Hospital Corporation, priority 1998, dated 2007)
